The labels stand for the following.
B1: recombinant glutathione S-transferase (GST)-Pol32 (natural protein, yeast (S. cerevisiae), UniProt P47110 1-350, looked up)
chain: MDQKASYFINEKLFTEVKPVLFTDLIHHLKIGPSMAKKLMFDYYKQTTNAKYNCVVICCYKDQTIKIIHDLSNIPQQDSIIDCFIYAFNPMDSFIPYYDIIDQKDCLTIKNSYELKVSESSKIIERTKTLEEKSKPLVRPTARSKTTPEETTGRKSKSKDMGLRSTALLAKMKKDRDDKETSRQNELRKRKEENLQKINKQNPEREAQMKELNNLFVEDDLDTEEVNGGSKPNSPKETDSNDKDKNNDDLEDLLETTAEDSLMDVPKIQQTKPSETEHSKEPKSEEEPSSFIDEDGYIVTKRPATSTPPRKPSPVVKRALSSSKKQETPSSNKRLKKQGTLESFFKRKAK
B2: recombinant Mcm2 (GST tag removed) (natural protein)
chain: MSDNRRRRREEDDSDSENELPPSSPQQHFRGGMNPVSSPIGSPDMINPEGDDNEVDDVPDIDEVEEQMNEVDLMDDNMYEDYAADHNRDRYDPDQVDDREQQELSLSERRRIDAQLNERDRLLRNVAYIDDEDEEQEGAAQLDEMGLPVQRRRRRRQYEDLENSDDDLLSDMDIDPLREELTLESLSNVKANSYSEWITQPNVSRTIARELKSFLLEYTDETGRSVYGARIRTLGEMNSESLEVNYRHLAESKAILALFLAKCPEEMLKIFDLVAMEATELHYPDYARIHSEIHVRISDFPTIYSLRELRESNLSSLVRVTGVVTRRTGVFPQLKYVKFNCLKCGSILGPFFQDSNEEIRISFCTNCKSKGPFRVNGEKTVYRNYQRVTLQEAPGTVPPGRLPRHREVILLADLVDVSKPGEEVEVTGIYKNNYDGNLNAKNGFPVFATIIEANSIKRREGNTANEGEEGLDVFSWTEEEEREFRKISRDRGIIDKIISSMAPSIYGHRDIKTAVACSLFGGVPKNVNGKHSIRGDINVLLLGDPGTAKSQILKYVEKTAHRAVFATGQGASAVGLTASVRKDPITKEWTLEGGALVLADKGVCLIDEFDKMNDQDRTSIHEAMEQQSISISKAGIVTTLQARCSIIAAANPNGGRYNSTLPLAQNVSLTEPILSRFDILCVVRDLVDEEADERLATFVVDSHVRSHPENDEDREGEELKNNGESAIEQGEDEINEQLNARQRRLQRQRKKEEEISPIPQELLMKYIHYARTKIYPKLHQMDMDKVSRVYADLRRESISTGSFPITVRHLESILRIAESFAKMRLSEFVSSYDLDRAIKVVVDSFVDAQKVSVRRQLRRSFAIYTLGH

Common to all, as to experiment: pull-down
The target of assay [1] is T1, recombinant human histone H3.1–H4 tetramer (human, UniProt P68431 1-136; P62805 1-103).
For assay [2], the target named is B2.
In assay [3] the target is T2, HIS-tagged N-terminal of yeast Pol1 (1 to 527 AA) (yeast (S. cerevisiae), UniProt P13382 1-527).
T2 sequence (looked up): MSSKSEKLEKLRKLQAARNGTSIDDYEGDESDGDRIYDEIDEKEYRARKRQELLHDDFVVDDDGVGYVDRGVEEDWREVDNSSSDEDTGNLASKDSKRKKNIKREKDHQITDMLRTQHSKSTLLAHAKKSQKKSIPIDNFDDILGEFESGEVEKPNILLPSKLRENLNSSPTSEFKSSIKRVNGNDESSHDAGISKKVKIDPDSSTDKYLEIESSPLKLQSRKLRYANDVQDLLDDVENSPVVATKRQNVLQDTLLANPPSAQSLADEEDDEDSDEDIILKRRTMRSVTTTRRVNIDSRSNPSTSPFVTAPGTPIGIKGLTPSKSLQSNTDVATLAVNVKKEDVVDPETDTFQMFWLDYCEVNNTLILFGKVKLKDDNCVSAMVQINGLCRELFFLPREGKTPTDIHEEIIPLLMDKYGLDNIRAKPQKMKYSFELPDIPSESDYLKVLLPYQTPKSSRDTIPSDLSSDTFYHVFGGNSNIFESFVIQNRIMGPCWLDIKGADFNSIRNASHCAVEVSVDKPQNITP

The target of assay [4] is T1, recombinant human histone H3.1–H4 …. This is another data set of the same source.

Where two headings read alike, the source gives them in different places.

In the case of B1, the binding result in assay [1], in assay [2] and in assay [3] was “binds” in each case.
Consider B2, for which the binding result in assay [4] is “binds”.

The values are drawn from article PMC11098083 (Proceedings of the National Academy of Sciences of the …, 2024).
